Earlier results, collected in patent publication US11795217B2, “Interleukin-1 inhibition for combination treatment of pancreatic cancer cachexia” (Cedars-Sinai Medical Center, priority 2018, dated 2023).

What was measured:
[1] = test system: patients with metastatic colorectal cancer
[2] = test system: patients with advanced cancer and cancer-associated symptoms; conditions: in vivo, 7.5 mg/kg
[3] = test system: patients with refractory cancers

bermekimab
response to treatment (primary outcome) ([1]; 309 patients, randomized 2:1, placebo 19%, p=0.0045): 33% | relative reduction in the number of SAEs ([1]; human, in vivo): 26% | drug-related toxicities [2]: no definite drug-related toxicities | patients with a positive DXA outcome as defined for the responder endpoint ([3]; 61 patients): 62 % of evaluable patients | minimum effective dose ([3]; every 2 weeks, dose escalation study): 3.75 mg/kg | dose limiting toxicity ([3]; human, in vivo): no dose limiting toxicity | grade ¾ toxicities: fatigue ([3]; human, in vivo): 13% | grade ¾ toxicities: nausea ([3]; human, in vivo): 13% | grade ¾ toxicities: proteinuria ([3]; human, in vivo): 21% | average LBM (lean body mass) change ([3]; patients with positive DXA outcome): 2.1 ± 2.8 kg
